The text below walks through data of publication PMC5585275.

The test deals with pre-translocation (PRE) complex of the E. coli 70S ribosome (E. coli) (UniProt P0A7K2). Briefly: stopped-flow fluorescence and FRET kinetics, global fit by numerical integration; PRE complexes (0.05 uM, six fluorescence reporters) mixed with saturating EF-G (4-5 uM), 1 mM GTP, 200 uM fusidic acid; buffer A (50 mM Tris-HCl pH 7.5, 70 mM NH4Cl, 30 mM KCl, 7 mM MgCl2), 37 °C; 5-step model, k-1/k1 constrained to 65/55 uM; KinTek Explorer.

In the case of “elongation factor G (from UniProt P0A6M8 1-704) (enzyme)”, the on-rate (kon) (usually the second-order rate constant of association) was 4.2e+07 M⁻¹ s⁻¹.
